# Experimental data as given in patent US20230277682A1 (priority 2022, published 2023).
# B1: mAb11729 (antibody, V domains shown)
# VH: QVQLVQSGAEVKKSGSSVKVSCKASGGTFSSYAISWVRQAPGQGLEWMGGIIPIFGTPSYAQKFQDRVTITTDESTSTVYMELSSLRSEDTAVYYCARQQPVYQYNMDVWGQGTTVTVSS
# VL: DIQMTQSPSSLSASVGDRVTITCRASQGIRNNLGWYQQKPLKAPKRLIYAASSLQSGVPSRFSGSGSGTEFTLTISSLQPEDFATYYCLQYNNYPWTFGQGTKVEIK
# B2: 11729-HC-Cterm-LLQGA-19a (conjugate)
# heavy: QVQLVQSGAEVKKSGSSVKVSCKASGGTFSSYAISWVRQAPGQGLEWMGGIIPIFGTPSYAQKFQDRVTITTDESTSTVYMELSSLRSEDTAVYYCARQQPVYQYNMDVWGQGTTVTVSSLLQGA
# VL: B1 VL
# modifications: left off: a dimerising Fc or GST
# B3: 11729-HC-Cterm-LLQGA-19C (conjugate)
# heavy: B2 heavy
# VL: B1 VL
# modifications: left off: a dimerising Fc or GST
# B4: 11729-HC-Cterm-LLQGA-10b (conjugate)
# heavy: B2 heavy
# VL: B1 VL
# modifications: left off: a dimerising Fc or GST
# B5: 11729-HC-Cterm-LLQGA-19b (conjugate)
# heavy: B2 heavy
# VL: B1 VL
# modifications: left off: a dimerising Fc or GST
# System: H1N1 A/Puerto Rico/08/1934 influenza virus
# Assay type: cell-based
Molecule,antiviral activity against H1N1 in vitro,Fold Increase over Parental Antibody [fold]
B1,displays antiviral activity against H1N1 in vitro,–
B2,–,7.75
B3,–,28.78
B4,–,6.96
B5,–,15.76
